Values quoted from earlier work in article PMC9315744.

Legend:
Assay in all cases: MST
[1] = biological target: MHV spike glycoprotein ECD (Murine hepatitis virus) (UniProt P11224)
Nsp8 (SARS-CoV-2) = Nsp8 (SARS-CoV-2) (UniProt P0DTD1)
[2] = biological target: Nsp7/Nsp8 complex (SARS-CoV-2) (UniProt P0DTD1)

Sequence of MHV spike glycoprotein ECD (Murine hepatitis virus) (P11224 15-1231): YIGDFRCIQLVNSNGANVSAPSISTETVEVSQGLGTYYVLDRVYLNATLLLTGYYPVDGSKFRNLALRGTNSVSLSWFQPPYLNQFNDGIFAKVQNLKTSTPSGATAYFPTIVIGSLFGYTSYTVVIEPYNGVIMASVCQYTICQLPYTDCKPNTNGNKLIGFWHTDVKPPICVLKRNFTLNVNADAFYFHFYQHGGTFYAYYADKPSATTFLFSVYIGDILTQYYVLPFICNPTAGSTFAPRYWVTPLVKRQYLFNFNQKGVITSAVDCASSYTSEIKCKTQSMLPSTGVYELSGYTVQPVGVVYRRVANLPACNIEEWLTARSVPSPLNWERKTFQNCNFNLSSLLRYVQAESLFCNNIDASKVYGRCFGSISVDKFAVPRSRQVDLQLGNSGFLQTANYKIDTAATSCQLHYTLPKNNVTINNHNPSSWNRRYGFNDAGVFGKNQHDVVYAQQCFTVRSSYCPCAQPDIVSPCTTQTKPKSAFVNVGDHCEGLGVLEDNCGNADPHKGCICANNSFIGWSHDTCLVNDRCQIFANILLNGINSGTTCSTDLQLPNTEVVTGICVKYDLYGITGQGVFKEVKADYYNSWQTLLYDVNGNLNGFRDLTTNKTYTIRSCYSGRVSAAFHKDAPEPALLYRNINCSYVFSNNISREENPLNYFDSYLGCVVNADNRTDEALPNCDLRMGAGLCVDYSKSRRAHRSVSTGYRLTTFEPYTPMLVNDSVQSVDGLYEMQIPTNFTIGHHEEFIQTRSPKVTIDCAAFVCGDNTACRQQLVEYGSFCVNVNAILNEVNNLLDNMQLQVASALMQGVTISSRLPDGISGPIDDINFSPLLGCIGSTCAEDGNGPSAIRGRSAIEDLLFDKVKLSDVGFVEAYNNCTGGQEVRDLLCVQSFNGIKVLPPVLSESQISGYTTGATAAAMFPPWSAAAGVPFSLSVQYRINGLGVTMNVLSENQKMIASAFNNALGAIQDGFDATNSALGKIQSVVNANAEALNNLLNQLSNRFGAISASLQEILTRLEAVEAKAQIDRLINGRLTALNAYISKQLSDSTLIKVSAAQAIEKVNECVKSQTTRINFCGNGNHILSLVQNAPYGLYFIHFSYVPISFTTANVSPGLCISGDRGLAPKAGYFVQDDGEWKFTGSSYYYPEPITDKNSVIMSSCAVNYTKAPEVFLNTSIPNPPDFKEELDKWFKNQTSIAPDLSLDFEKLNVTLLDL
Sequence of CEACAM1a (P31809 35-428): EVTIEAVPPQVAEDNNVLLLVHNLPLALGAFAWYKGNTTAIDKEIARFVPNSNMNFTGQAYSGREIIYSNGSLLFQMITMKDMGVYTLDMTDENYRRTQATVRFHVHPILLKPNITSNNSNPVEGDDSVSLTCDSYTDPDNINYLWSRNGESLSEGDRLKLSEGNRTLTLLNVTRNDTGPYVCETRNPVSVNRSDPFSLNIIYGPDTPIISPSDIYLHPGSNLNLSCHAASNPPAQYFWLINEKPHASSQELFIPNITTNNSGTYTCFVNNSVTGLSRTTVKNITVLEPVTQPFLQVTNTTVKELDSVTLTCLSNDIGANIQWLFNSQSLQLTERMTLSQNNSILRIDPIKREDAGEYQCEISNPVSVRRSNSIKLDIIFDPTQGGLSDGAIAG

Substance	Kd [1] [µM]	Kd (Nsp8 (SARS-CoV-2)) [µM]	Kd [2] [µM]
CEACAM1a (from UniProt P31809)	0.0485		
Nsp15 (from UniProt P0DTD1)		16.3	6.48
